In PMC8368996 (2021):
Read-outs that look alike come from different tables or passages of the source. Ends that are not written are not given here. Oregon Green 488 maleimide = Oregon Green 488 maleimide fluorescent label attached to the N-terminal cysteine

B1: NEDD4L WW2 domain (domain or fragment)
chain: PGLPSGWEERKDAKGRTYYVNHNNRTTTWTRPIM
B2: NEDD4L WW4 domain (domain or fragment)
chain: GPLPPGWEERIHLDGRTFYIDHNSKITQWEDPRL
B3: NEDD4L WW3 domain (domain or fragment)
chain: KVTQSFLPPGWEMRIAPNGRPFFIDHNTKTTTWEDPRLKFPVHMRSK
B4: NEDD4L WW1 domain (domain or fragment)
chain: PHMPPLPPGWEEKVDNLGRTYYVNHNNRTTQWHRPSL

Columns and labels:
Test in all cases: FP
NEDD4L WW4 domain = molecular target: B2
NEDD4L WW1 domain = molecular target: B4
NEDD4L WW3 domain [1] = molecular target: B3
NEDD4L WW2 domain = molecular target: B1
NEDD4L WW3 domain [2] = molecular target: B3; remark: listed apart in the source
PPxYc [3] = molecular target: PPxYc
Target sequence in this assay (Q96PU5 385-418): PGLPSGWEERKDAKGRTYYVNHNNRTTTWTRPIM

PPxYc [4] = molecular target: PPxYc; remark: listed apart in the source
PPxYc [5] = molecular target: PPxYc; remark: listed apart in the source
PPxYc [6] = molecular target: PPxYc; remark: listed apart in the source
Target sequence in this assay (Q96PU5 other isoform, or with tags, fused parts or gaps): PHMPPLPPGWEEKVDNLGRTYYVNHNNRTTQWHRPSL

Chain of NEDD4L WW1 domain (chain, as listed by the source): as the sequence (Q96PU5 other isoform, or with tags, fused parts or gaps) above
Chain of NEDD4L WW2 domain (Q96PU5 385-418): as the sequence (Q96PU5 385-418) above

| Binder | Kd (NEDD4L WW4 domain) | Kd (NEDD4L WW1 domain) | Kd (NEDD4L WW2 domain) | Kd (NEDD4L WW3 domain [2]) | also measured |
| --- | --- | --- | --- | --- | --- |
| C(Oregon Green 488 maleimide)LMRYQHPPEYGAARP [AMOT PPxY3 peptide (residues 278-292), Oregon Green 488-labelled] | > 400 µM | > 400 µM | 280 µM | – | Kd (NEDD4L WW3 domain [1]): 100 µM |
| C(Oregon Green 488 maleimide)MQNNEEPPTYEEAKV [AMOT PPxY1 L106P mutant peptide] | – | – | – | 6.7 µM | – |
| C(Oregon Green 488 maleimide)MQNNEELPTYEEAKV [AMOT PPxY1 peptide (residues 100-114), Oregon Green 488-labelled] | 60 µM | 180 µM | 34 µM | 6.3 µM | – |
| C(Oregon Green 488 maleimide)MEHRGPLPEYPFKGM [AMOT PPxY2 P239L mutant peptide] | – | – | – | 78 µM | – |
| B1 | – | – | – | – | Kd (PPxYc [3]): > 800 µM |
| B2 | – | – | – | – | Kd (PPxYc [4]): > 400 µM |
| B3 | – | – | – | – | Kd (PPxYc [5]): > 250 µM |
| C(Oregon Green 488 maleimide)MEHRGPPPEYPFKGM [AMOT PPxY2 peptide (residues 233-247), Oregon Green 488-labelled] | 210 µM | 49 µM | 30 µM | – | Kd (NEDD4L WW3 domain [1]): 28 µM |
| B4 | – | – | – | – | Kd (PPxYc [6]): > 400 µM |
